Test results as given in US20190359693A1.

Key:
[1] = target: HA of H1N1 A/New Caledonia/20/1999 (influenza A virus); test: BLI steady state
[2] = target: HA of H3N2 A/Brisbane/10/2007 (influenza A virus); test: cell-based or functional assay
[3] = target: HA of B/Brisbane/60/2008 (Victoria) (influenza B virus); test: cell-based or functional assay
[4] = target: HA of H5N1 A/PR8 H5N1 HK97 (influenza A virus); test: cell-based or functional assay
[5] = target: HA of H1N1 A/Puerto Rico/8/34-MA (influenza A virus); test: cell-based or functional assay
[6] = target: HA of H7N3 A/NIBRG/60 (A/mallard/NL/12/00) (influenza A virus); test: cell-based or functional assay
[7] = target: HA of H5N1 A/Vietnam/1194/04 (influenza A virus); test: cell-based or functional assay
[8] = target: HA of B/Florida/04/2006 (Yamagata) (influenza B virus); test: cell-based or functional assay
[9] = target: HA of H1N1 A/New Caledonia/20/1999 (influenza A virus); test: cell-based or functional assay
[10] = target: hemagglutinin (HA) of influenza virus H3N2 A/HK/1/68-MA (influenza A virus); test: cell-based or functional assay
[11] = target: hemagglutinin (HA) of influenza virus H6N1 A/Taiwan/2/2013 (influenza A virus); test: cell-based or functional assay
[12] = target: hemagglutinin (HA) of influenza virus H1N1 A/Puerto Rico/8/34-MA (influenza A virus); test: cell-based or functional assay
[13] = target: hemagglutinin (HA) of influenza virus B/Lee/40 (Old) (influenza B virus) (UniProt P03460); test: cell-based or functional assay
[14] = target: hemagglutinin (HA) of influenza virus H7N3 A/NIBRG/60 (A/mallard/Netherlands/12/00) (influenza A virus); test: cell-based or functional assay
[15] = target: hemagglutinin (HA) of influenza virus B/Florida/04/06 (Yamagata) (influenza B virus); test: cell-based or functional assay
[16] = target: hemagglutinin (HA) of influenza virus H5N1 A/Vietnam/1194/04 (influenza A virus); test: cell-based or functional assay
[17] = target: HA of B/Brisbane/60/2008 (Victoria) (influenza B virus); test: AlphaLISA competition vs CR8071
[18] = target: HA of H3N2 A/Brisbane/10/2007 (influenza A virus); test: AlphaLISA competition vs 39.29
[19] = target: HA of H3N2 A/Brisbane/10/2007 (influenza A virus); test: AlphaLISA competition vs CR9114
[20] = target: HA of B/Brisbane/60/2008 (Victoria) (influenza B virus); test: AlphaLISA competition vs CR9114
[21] = target: HA of B/Florida/04/2006 (Yamagata) (influenza B virus); test: AlphaLISA competition vs CR9114
[22] = target: hemagglutinin (HA) of influenza B/Malaysia/2506/04 (Victoria) (influenza B virus); test: cell-based or functional assay
[23] = target: hemagglutinin (HA) of influenza B/Massachusetts/02/12 (Yamagata) (influenza B virus); test: cell-based or functional assay
[24] = target: hemagglutinin (HA) of influenza B/Florida/04/06 (Yamagata) (influenza B virus); test: cell-based or functional assay
[25] = target: hemagglutinin (HA) of influenza B/Harbin/7/94 (Yamagata) (influenza B virus); test: cell-based or functional assay
[26] = target: hemagglutinin (HA) of influenza B/Lee/40 (Old) (influenza B virus) (UniProt P03460); test: cell-based or functional assay
[27] = target: HA of H3N2 A/Brisbane/10/2007 (influenza A virus); test: AlphaLISA competition vs SD1036
[28] = target: HA of H3N2 A/Brisbane/10/2007 (influenza A virus); test: AlphaLISA competition vs SD1038
[29] = target: HA of B/Florida/04/2006 (Yamagata) (influenza B virus); test: AlphaLISA competition vs CR8033
[30] = target: recombinant HA of B/Brisbane/60/08 (Victoria) (influenza B virus); test: biolayer interferometry (Octet), steady-state fit, geometric mean, pH 7.4
[31] = target: recombinant HA of B/Florida/04/06 (Yamagata) (influenza B virus); test: as above
[32] = target: hemagglutinin (HA) of influenza virus B/Brisbane/60/08 (Victoria) (influenza B virus); test: cell-based or functional assay
[33] = target: HA of H3N2 A/Brisbane/10/2007 (influenza A virus); test: AlphaLISA competition vs CR8057
[34] = target: HA of H3N2 A/Brisbane/10/2007 (influenza A virus); test: BLI steady state
[35] = target: HA of H7N3 A/NIBRG/60 (A/mallard/NL/12/00) (influenza A virus); test: BLI steady state
[36] = target: hemagglutinin (HA) of influenza A/New York/107/03 (PR8) (influenza A virus A/New York/107/03 (PR8)); test: cell-based or functional assay
[37] = target: hemagglutinin (HA) of influenza A/waterfowl/Hong Kong/MPA892/06 (H4) (influenza A virus A/waterfowl/Hong Kong/MPA892/06 (H4)); test: cell-based or functional assay
[38] = target: HA of H1N1 A/Brisbane/59/07 (influenza A virus); test: cell-based or functional assay
[39] = target: hemagglutinin (HA) of influenza A/chicken/Germany/n/49 (H10N7) (influenza A virus A/chicken/Germany/n/49 (H10N7)); test: cell-based or functional assay
[40] = target: hemagglutinin (HA) of influenza A/Brisbane/10/07 (H3N2) (influenza A virus A/Brisbane/10/07 (H3N2)); test: cell-based or functional assay
[41] = target: HA of H3N2 A/Brisbane/10/2007 (influenza A virus); test: AlphaLISA competition vs CR8020
[42] = target: HA of B/Florida/04/2006 (Yamagata) (influenza B virus); test: AlphaLISA competition vs CR8071

B1: SD1045 (VHH)
VHH: EVQLVESGGGLVQAGGSLRLSCAASGSSFSINVMGWYRQAPGKQREMVATITYGGSTNYVDSVKGRFTISRDNAKNTVYLQMNSLKPEDTAVYYCNSRLAQINYWGQGTQVTVSS
Kd [1]: 5 nM | VNA titer [2]: 641 nM | VNA titer [3]: > 1000 nM | VNA titer [4]: 117 nM | VNA titer [5]: 206 nM | VNA titer [6]: > 1000 nM | VNA titer [7]: 63.5 nM | VNA titer [8]: > 1000 nM | VNA titer [9]: 166 nM

B2: MD2401 (protein)
chain: EVQLVESGGGLVQPGGSLRLSCAVSISIFDIYAMDWYRQAPGKQRDLVATSFRDGSTNYADSVKGRFTISRDNAKNTLYLQMNSLKPEDTAVYLCHVSLYRDPLGVAGGMGVYWGKGALVTVSSAAAGGGGSGGGGSGGGGSGGGGSGGGGSGGGGSGGGGSEVQLVESGGGLVQAGGSLKLSCAASGRTYAMGWFRQAPGKEREFVAHINALGTRTYYSDSVKGRFTISRDNAKNTEYLEMNNLKPEDTAVYYCTAQGQWRAAPVAVAAEYEFWGQGTQVTVSSLINLEGGGGSGGGGSGGGGSGGGGSGGGGSGGGGSGGGGSPAGEVQLVESGGGLVQPGGSLRLSCAATGFTLENKAIGWFRQTPGSEREGVLCISKSGSWTYYTDSMRGRFTISRDNAENTVYLQMDSLKPEDTAVYYCATTTAGGGLCWDGTTFSRLASSWGQGTQVTVSSAAAGGGGSGGGGSGGGGSGGGGSGGGGSGGGGSGGGGSEVQLVESGGGLVQPGGSLRLSCAATGFTLENKAIGWFRQTPGSEREGVLCISKSGSWTYYTDSMRGRFTISRDNAENTVYLQMDSLKPEDTAVYYCATTTAGGGLCWDGTTFSRLASSWGQGTQVTVSS
average neutralization titer [10]: 27.7 nM | average neutralization titer [11]: 36.3 nM | average neutralization titer [12]: 14.7 nM | average neutralization titer [13]: 165 nM | average neutralization titer [14]: 27.7 nM | average neutralization titer [15]: 277 nM | average neutralization titer [16]: 27.7 nM

B3: SD1087 (VHH)
VHH: EVQLVESGGGLVQPGGSLRLSCVISGLSLDTYAVGWFRQAPGKEREGITCISSGHGMTYYADSVKGRFTVSTDNAKNTVYLQMNGLQPEDTARYYCATESRYYCSDNWPAPQRYIYWGQGTQVTVSS
pIC50 [17]: < 7 | pIC50 [18]: < 7 | pIC50 [19]: < 7 | pIC50 [20]: 7.5 | pIC50 [21]: 8.8 | VNA titer [3]: 10.2 nM | hemagglutination inhibition titer [3]: > 50 µg/mL | VNA IC50 [22]: 59 nM | VNA IC50 [23]: 1000 nM | VNA IC50 [24]: > 1000 nM | VNA IC50 [25]: > 1000 nM | VNA titer [8]: > 1000 nM | hemagglutination inhibition titer [8]: > 50 µg/mL | VNA IC50 [26]: 22 nM | pIC50 [27]: < 7 | pIC50 [28]: < 7 | pIC50 [29]: < 7

B4: MD1221 (VHH)
chain: EVQLVESGGGLVQPGGSLRLSCAATGFTLENKAIGWFRQTPGSEREGVLCISKSGSWTYYTDSMRGRFTISRDNAENTVYLQMDSLKPEDTAVYYCATTTAGGGLCWDGTTFSRLASSWGQGTQVTVSSAAAGGGGSGGGGSGGGGSGGGGSGGGGSGGGGSGGGGSEVQLVESGGGLVQPGGSLRLSCAATGFTLENKAIGWFRQTPGSEREGVLCISKSGSWTYYTDSMRGRFTISRDNAENTVYLQMDSLKPEDTAVYYCATTTAGGGLCWDGTTFSRLASSWGQGTQVTVSS
Kd [30]: 1.7 nM | Kd [31]: 1.9 nM | neutralization titer [32]: 23.4 nM | neutralization titer [13]: 32.5 nM | neutralization titer [15]: 76.4 nM

B5: SD1046 (VHH)
VHH: EVQLVESGGGLVQAGDSLRISCAASGRTLSIYSMGWFRQAPGKEREFVATIGWNSGRTFYPDSLKGRFTISRDNARNTLYLQMNNLRPEDTAVYYCAAAKGPLRLSSQADYWGQGTQVTVSS
pIC50 [19]: 9.9 | pIC50 [33]: < 7 | Kd [34]: 2 nM | Kd [35]: 3 nM | VNA titer [2]: 6.6 nM | VNA titer [3]: > 1000 nM | VNA IC50 [36]: 34 nM | VNA IC50 [37]: 3 nM | VNA titer [38]: > 1000 nM | VNA titer [6]: 26.4 nM | VNA IC50 [39]: 13 nM | VNA titer [7]: > 1000 nM | VNA IC50 [40]: 5 nM | VNA titer [8]: > 1000 nM | VNA titer [9]: > 1000 nM | pIC50 [41]: 9.6

B6: SD1086 (VHH)
VHH: EVQLVESGGGLVQAGGSLRLSCTASGSISSIDYMRWYRQYPGKHRELVATITSGGAADSRDSVKGRFTVSRGNAANTMYLQMNNLKPEDTAVYYCNAYGLEIGAHWGRGTQVTVSS
pIC50 [17]: < 7 | pIC50 [42]: < 7 | pIC50 [20]: 8.6 | pIC50 [21]: 8 | VNA titer [3]: 827 nM | VNA titer [8]: > 1000 nM | pIC50 [29]: < 7
